# T1: APBA1_1, Q02410
# T1 sequence (Q02410 651-752, limits assumed, looked up): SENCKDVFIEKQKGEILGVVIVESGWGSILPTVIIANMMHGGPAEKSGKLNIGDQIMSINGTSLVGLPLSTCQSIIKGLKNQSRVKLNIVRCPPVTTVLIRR
# T2: APBA1_2, Q02410
# T2 sequence (Q02410 742-832, limits assumed, looked up): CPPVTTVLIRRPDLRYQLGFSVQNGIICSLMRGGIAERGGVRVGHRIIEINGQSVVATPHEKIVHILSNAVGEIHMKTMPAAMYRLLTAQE
# T3: GRIP1_2, Q9Y3R0
# T3 sequence (Q9Y3R0 145-248, limits assumed, looked up): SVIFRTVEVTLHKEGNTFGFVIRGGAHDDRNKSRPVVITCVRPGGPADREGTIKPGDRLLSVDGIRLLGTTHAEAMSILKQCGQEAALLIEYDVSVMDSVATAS
# T4: GRIP1_3, Q9Y3R0
# T4 sequence (Q9Y3R0 247-346, limits assumed, looked up): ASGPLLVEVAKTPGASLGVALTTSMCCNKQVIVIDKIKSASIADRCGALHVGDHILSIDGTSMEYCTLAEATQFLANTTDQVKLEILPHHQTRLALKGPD
# T5: GRIP1_4, Q9Y3R0
# T5 sequence (Q9Y3R0 467-571, limits assumed, looked up): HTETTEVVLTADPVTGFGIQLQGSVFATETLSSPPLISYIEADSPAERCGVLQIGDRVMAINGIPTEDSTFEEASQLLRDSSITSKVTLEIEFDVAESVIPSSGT
# T6: HTRA4, P83105
# T6 sequence (P83105 378-476, limits assumed, looked up): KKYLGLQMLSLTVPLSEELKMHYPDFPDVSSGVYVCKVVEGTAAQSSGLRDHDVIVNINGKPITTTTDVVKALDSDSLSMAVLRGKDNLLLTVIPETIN
# T7: LIN7A, O14910
# T7 sequence (O14910 103-200, limits assumed, looked up): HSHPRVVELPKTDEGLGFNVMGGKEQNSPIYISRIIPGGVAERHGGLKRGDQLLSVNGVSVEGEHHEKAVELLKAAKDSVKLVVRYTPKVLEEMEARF
# T8: LRRC7, Q96NW7
# T8 sequence (Q96NW7 1440-1537, limits assumed, looked up): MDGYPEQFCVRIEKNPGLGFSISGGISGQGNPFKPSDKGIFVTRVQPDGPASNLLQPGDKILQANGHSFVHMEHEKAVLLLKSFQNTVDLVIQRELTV
# T9: PARD3B_1, Q8TEW8
# T9 sequence (Q8TEW8 196-299, limits assumed, looked up): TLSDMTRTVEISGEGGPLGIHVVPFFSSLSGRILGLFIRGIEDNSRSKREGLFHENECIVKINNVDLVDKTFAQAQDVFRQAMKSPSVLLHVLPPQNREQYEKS
# T10: PCLO, Q9Y6V0
# T10 sequence (Q9Y6V0 4491-4600, limits assumed, looked up): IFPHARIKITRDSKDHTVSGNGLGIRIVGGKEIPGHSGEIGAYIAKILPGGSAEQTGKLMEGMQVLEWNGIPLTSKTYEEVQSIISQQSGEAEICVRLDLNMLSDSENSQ
# T11: TIAM2, Q8IVF5
# T11 sequence (Q8IVF5 885-986, limits assumed, looked up): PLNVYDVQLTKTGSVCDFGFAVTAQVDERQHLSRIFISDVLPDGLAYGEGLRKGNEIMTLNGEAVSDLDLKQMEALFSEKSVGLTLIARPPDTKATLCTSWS
# Target: T1, APBA1_1, Q02410
# Assay: holdup assay
# Design: key: below the threshold = too weak to quantify, mostly under pKd 3.1 to 4
# Conditions: plain residues with an end cap or a label only (N-terminal biotin on a linker: ado-ado)
row,Binder,pKd
1,"KPGKGSETVV [FZD4, Q9ULV1]",below the threshold
2,"AAVENKVTDL [PLXNB1, O43157]",below the threshold

# Target: T2, APBA1_2, Q02410
# Assay: holdup assay
# Design: key: below the threshold = too weak to quantify, mostly under pKd 3.1 to 4
# Conditions: plain residues with an end cap or a label only (N-terminal biotin on a linker: ado-ado)
row,Binder,pKd
1,"KPGKGSETVV [FZD4, Q9ULV1]",3.64
2,"AAVENKVTDL [PLXNB1, O43157]",4.23

# Target: ARHGEF12, Q9NZN5-2
# Assay: holdup assay
# Design: key: below the threshold = too weak to quantify, mostly under pKd 3.1 to 4
# Conditions: plain residues with an end cap or a label only (N-terminal biotin on a linker: ado-ado)
# Chain of ARHGEF12, Q9NZN5-2 (Q9NZN5 other isoform, or with tags, fused parts or gaps): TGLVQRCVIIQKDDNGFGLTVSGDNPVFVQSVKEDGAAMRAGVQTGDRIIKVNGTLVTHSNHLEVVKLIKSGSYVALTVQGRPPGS
row,Binder,pKd
1,"KPGKGSETVV [FZD4, Q9ULV1]",below the threshold
2,"AAVENKVTDL [PLXNB1, O43157]",5.5

# Target: DLG2_2, Q15700
# Assay: holdup assay
# Design: key: below the threshold = too weak to quantify, mostly under pKd 3.1 to 4
# Conditions: plain residues with an end cap or a label only (N-terminal biotin on a linker: ado-ado)
# Chain of DLG2_2, Q15700 (Q15700 189-283): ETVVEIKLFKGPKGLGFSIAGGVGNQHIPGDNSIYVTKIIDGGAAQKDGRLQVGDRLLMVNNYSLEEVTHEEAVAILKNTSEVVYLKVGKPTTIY
row,Binder,pKd
1,"KPGKGSETVV [FZD4, Q9ULV1]",4.87
2,"AAVENKVTDL [PLXNB1, O43157]",3.95

# Target: DLG5_1, Q8TDM6
# Assay: holdup assay
# Design: key: below the threshold = too weak to quantify, mostly under pKd 3.1 to 4
# Conditions: plain residues with an end cap or a label only (N-terminal biotin on a linker: ado-ado)
# Chain of DLG5_1, Q8TDM6 (Q8TDM6 617-713): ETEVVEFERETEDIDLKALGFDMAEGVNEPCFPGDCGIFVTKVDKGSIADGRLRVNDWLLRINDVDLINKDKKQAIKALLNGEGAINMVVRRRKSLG
row,Binder,pKd
1,"KPGKGSETVV [FZD4, Q9ULV1]",3.54
2,"AAVENKVTDL [PLXNB1, O43157]",below the threshold

# Target: FRMPD2_2, Q68DX3
# Assay: holdup assay
# Design: key: below the threshold = too weak to quantify, mostly under pKd 3.1 to 4
# Conditions: plain residues with an end cap or a label only (N-terminal biotin on a linker: ado-ado)
# Chain of FRMPD2_2, Q68DX3 (Q68DX3 944-1038): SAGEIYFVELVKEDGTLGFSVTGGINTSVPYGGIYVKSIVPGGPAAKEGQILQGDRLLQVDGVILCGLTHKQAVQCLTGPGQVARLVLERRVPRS
row,Binder,pKd
1,"KPGKGSETVV [FZD4, Q9ULV1]",below the threshold
2,"AAVENKVTDL [PLXNB1, O43157]",below the threshold

# Target: GOPC, Q9HD26
# Assay: holdup assay
# Design: key: below the threshold = too weak to quantify, mostly under pKd 3.1 to 4
# Conditions: plain residues with an end cap or a label only (N-terminal biotin on a linker: ado-ado)
row,Binder,pKd
1,"KPGKGSETVV [FZD4, Q9ULV1]",3.73
2,"AAVENKVTDL [PLXNB1, O43157]",3.65

# Target: T3, GRIP1_2, Q9Y3R0
# Assay: holdup assay
# Design: key: below the threshold = too weak to quantify, mostly under pKd 3.1 to 4
# Conditions: plain residues with an end cap or a label only (N-terminal biotin on a linker: ado-ado)
row,Binder,pKd
1,"KPGKGSETVV [FZD4, Q9ULV1]",below the threshold
2,"AAVENKVTDL [PLXNB1, O43157]",below the threshold

# Target: T4, GRIP1_3, Q9Y3R0
# Assay: holdup assay
# Design: key: below the threshold = too weak to quantify, mostly under pKd 3.1 to 4
# Conditions: plain residues with an end cap or a label only (N-terminal biotin on a linker: ado-ado)
row,Binder,pKd
1,"KPGKGSETVV [FZD4, Q9ULV1]",below the threshold
2,"AAVENKVTDL [PLXNB1, O43157]",below the threshold

# Target: T5, GRIP1_4, Q9Y3R0
# Assay: holdup assay
# Design: key: below the threshold = too weak to quantify, mostly under pKd 3.1 to 4
# Conditions: plain residues with an end cap or a label only (N-terminal biotin on a linker: ado-ado)
row,Binder,pKd
1,"KPGKGSETVV [FZD4, Q9ULV1]",below the threshold
2,"AAVENKVTDL [PLXNB1, O43157]",below the threshold

# Target: GRIP2_3, Q9C0E4
# Assay: holdup assay
# Design: key: below the threshold = too weak to quantify, mostly under pKd 3.1 to 4
# Conditions: plain residues with an end cap or a label only (N-terminal biotin on a linker: ado-ado)
# Chain of GRIP2_3, Q9C0E4 (Q9C0E4 238-339): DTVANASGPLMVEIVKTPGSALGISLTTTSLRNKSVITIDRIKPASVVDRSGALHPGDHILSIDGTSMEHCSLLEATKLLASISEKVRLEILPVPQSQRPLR
row,Binder,pKd
1,"KPGKGSETVV [FZD4, Q9ULV1]",below the threshold
2,"AAVENKVTDL [PLXNB1, O43157]",below the threshold

# Target: T6, HTRA4, P83105
# Assay: holdup assay
# Design: key: below the threshold = too weak to quantify, mostly under pKd 3.1 to 4
# Conditions: plain residues with an end cap or a label only (N-terminal biotin on a linker: ado-ado)
row,Binder,pKd
1,"KPGKGSETVV [FZD4, Q9ULV1]",below the threshold
2,"AAVENKVTDL [PLXNB1, O43157]",below the threshold

# Target: Inadl_2, Q8NI35
# Assay: holdup assay
# Design: key: below the threshold = too weak to quantify, mostly under pKd 3.1 to 4
# Conditions: plain residues with an end cap or a label only (N-terminal biotin on a linker: ado-ado)
# Chain of Inadl_2, Q8NI35 (Q8NI35 238-335): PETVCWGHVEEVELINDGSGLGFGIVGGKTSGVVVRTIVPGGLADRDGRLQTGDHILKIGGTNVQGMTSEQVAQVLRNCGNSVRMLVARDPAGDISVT
row,Binder,pKd
1,"KPGKGSETVV [FZD4, Q9ULV1]",below the threshold
2,"AAVENKVTDL [PLXNB1, O43157]",below the threshold

# Target: Inadl_8, Q8NI35
# Assay: holdup assay
# Design: key: below the threshold = too weak to quantify, mostly under pKd 3.1 to 4
# Conditions: plain residues with an end cap or a label only (N-terminal biotin on a linker: ado-ado)
# Chain of Inadl_8, Q8NI35 (Q8NI35 1425-1530): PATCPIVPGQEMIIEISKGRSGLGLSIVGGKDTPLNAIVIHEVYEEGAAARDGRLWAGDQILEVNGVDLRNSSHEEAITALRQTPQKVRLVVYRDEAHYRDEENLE
row,Binder,pKd
1,"KPGKGSETVV [FZD4, Q9ULV1]",3.49
2,"AAVENKVTDL [PLXNB1, O43157]",below the threshold

# Target: Inadl_9, Q8NI35
# Assay: holdup assay
# Design: key: below the threshold = too weak to quantify, mostly under pKd 3.1 to 4
# Conditions: plain residues with an end cap or a label only (N-terminal biotin on a linker: ado-ado)
# Chain of Inadl_9, Q8NI35 (Q8NI35 1530-1615): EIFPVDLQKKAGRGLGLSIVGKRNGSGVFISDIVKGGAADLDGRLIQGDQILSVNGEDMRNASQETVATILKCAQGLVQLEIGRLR
row,Binder,pKd
1,"KPGKGSETVV [FZD4, Q9ULV1]",below the threshold
2,"AAVENKVTDL [PLXNB1, O43157]",below the threshold

# Target: T7, LIN7A, O14910
# Assay: holdup assay
# Design: key: below the threshold = too weak to quantify, mostly under pKd 3.1 to 4
# Conditions: plain residues with an end cap or a label only (N-terminal biotin on a linker: ado-ado)
row,Binder,pKd
1,"KPGKGSETVV [FZD4, Q9ULV1]",below the threshold
2,"AAVENKVTDL [PLXNB1, O43157]",below the threshold

# Target: T8, LRRC7, Q96NW7
# Assay: holdup assay
# Design: key: below the threshold = too weak to quantify, mostly under pKd 3.1 to 4
# Conditions: plain residues with an end cap or a label only (N-terminal biotin on a linker: ado-ado)
row,Binder,pKd
1,"KPGKGSETVV [FZD4, Q9ULV1]",below the threshold
2,"AAVENKVTDL [PLXNB1, O43157]",3.74

# Target: MAGI2_2, Q86UL8
# Assay: holdup assay
# Design: key: below the threshold = too weak to quantify, mostly under pKd 3.1 to 4
# Conditions: plain residues with an end cap or a label only (N-terminal biotin on a linker: ado-ado)
# Chain of MAGI2_2, Q86UL8 (Q86UL8 410-522): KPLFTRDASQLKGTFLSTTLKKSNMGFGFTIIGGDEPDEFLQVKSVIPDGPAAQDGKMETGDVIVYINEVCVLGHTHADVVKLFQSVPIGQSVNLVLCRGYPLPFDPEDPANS
row,Binder,pKd
1,"KPGKGSETVV [FZD4, Q9ULV1]",5.22
2,"AAVENKVTDL [PLXNB1, O43157]",below the threshold

# Target: NHERF2_2, Q15599
# Assay: holdup assay
# Design: key: below the threshold = too weak to quantify, mostly under pKd 3.1 to 4
# Conditions: plain residues with an end cap or a label only (N-terminal biotin on a linker: ado-ado)
# Chain of NHERF2_2, Q15599 (Q15599 142-238): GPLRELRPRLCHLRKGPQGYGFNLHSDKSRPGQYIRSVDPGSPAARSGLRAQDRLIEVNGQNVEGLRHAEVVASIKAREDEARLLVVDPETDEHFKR
row,Binder,pKd
1,"KPGKGSETVV [FZD4, Q9ULV1]",below the threshold
2,"AAVENKVTDL [PLXNB1, O43157]",4.07

# Target: NOS1, P29475
# Assay: holdup assay
# Design: key: below the threshold = too weak to quantify, mostly under pKd 3.1 to 4
# Conditions: plain residues with an end cap or a label only (N-terminal biotin on a linker: ado-ado)
# Chain of NOS1, P29475 (P29475 9-101): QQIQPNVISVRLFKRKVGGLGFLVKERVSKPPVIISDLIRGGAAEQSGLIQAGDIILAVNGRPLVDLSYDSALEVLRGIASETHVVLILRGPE
row,Binder,pKd
1,"KPGKGSETVV [FZD4, Q9ULV1]",3.81
2,"AAVENKVTDL [PLXNB1, O43157]",below the threshold

# Target: T9, PARD3B_1, Q8TEW8
# Assay: holdup assay
# Design: key: below the threshold = too weak to quantify, mostly under pKd 3.1 to 4
# Conditions: plain residues with an end cap or a label only (N-terminal biotin on a linker: ado-ado)
row,Binder,pKd
1,"KPGKGSETVV [FZD4, Q9ULV1]",below the threshold
2,"AAVENKVTDL [PLXNB1, O43157]",3.54

# Target: PARD3_3, Q8TEW0
# Assay: holdup assay
# Design: key: below the threshold = too weak to quantify, mostly under pKd 3.1 to 4
# Conditions: plain residues with an end cap or a label only (N-terminal biotin on a linker: ado-ado)
# Chain of PARD3_3, Q8TEW0 (Q8TEW0 582-685): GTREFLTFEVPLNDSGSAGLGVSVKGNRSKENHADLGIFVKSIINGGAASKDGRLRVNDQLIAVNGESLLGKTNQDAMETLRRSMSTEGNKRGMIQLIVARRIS
row,Binder,pKd
1,"KPGKGSETVV [FZD4, Q9ULV1]",below the threshold
2,"AAVENKVTDL [PLXNB1, O43157]",below the threshold

# Target: T10, PCLO, Q9Y6V0
# Assay: holdup assay
# Design: key: below the threshold = too weak to quantify, mostly under pKd 3.1 to 4
# Conditions: plain residues with an end cap or a label only (N-terminal biotin on a linker: ado-ado)
row,Binder,pKd
1,"KPGKGSETVV [FZD4, Q9ULV1]",below the threshold
2,"AAVENKVTDL [PLXNB1, O43157]",below the threshold

# Target: PDZRN4_1, Q6ZMN7
# Assay: holdup assay
# Design: key: below the threshold = too weak to quantify, mostly under pKd 3.1 to 4
# Conditions: plain residues with an end cap or a label only (N-terminal biotin on a linker: ado-ado)
# Chain of PDZRN4_1, Q6ZMN7 (Q6ZMN7 213-318): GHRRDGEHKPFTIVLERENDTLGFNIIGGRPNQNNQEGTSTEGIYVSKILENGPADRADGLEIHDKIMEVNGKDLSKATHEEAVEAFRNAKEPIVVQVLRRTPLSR
row,Binder,pKd
1,"KPGKGSETVV [FZD4, Q9ULV1]",3.51
2,"AAVENKVTDL [PLXNB1, O43157]",below the threshold

# Target: PICK1, Q9NRD5
# Assay: holdup assay
# Design: key: below the threshold = too weak to quantify, mostly under pKd 3.1 to 4
# Conditions: plain residues with an end cap or a label only (N-terminal biotin on a linker: ado-ado)
# Chain of PICK1, Q9NRD5 (Q9NRD5 17-115): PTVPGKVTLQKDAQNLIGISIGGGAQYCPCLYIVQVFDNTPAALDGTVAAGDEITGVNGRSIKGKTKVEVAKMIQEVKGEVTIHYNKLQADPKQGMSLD
row,Binder,pKd
1,"KPGKGSETVV [FZD4, Q9ULV1]",below the threshold
2,"AAVENKVTDL [PLXNB1, O43157]",below the threshold

# Target: T11, TIAM2, Q8IVF5
# Assay: holdup assay
# Design: key: below the threshold = too weak to quantify, mostly under pKd 3.1 to 4
# Conditions: plain residues with an end cap or a label only (N-terminal biotin on a linker: ado-ado)
row,Binder,pKd
1,"KPGKGSETVV [FZD4, Q9ULV1]",below the threshold
2,"AAVENKVTDL [PLXNB1, O43157]",below the threshold

# Source: publication PMC9482650, “Quantitative fragmentomics allow affinity mapping of interactomes” (Nature Communications, 2022)
